According to patent US20230365714A1 (published 2023):
Numbering of substitutions follows the chain as printed.

B1: IgG1-ROR2-A-HC3LC2-FEAR (antibody, V domains shown)
VH: EVQLLESGGGLVQPGGSLRLSCTVSGFSLSSYSMSWVRQAPGKGLEWIGVIYVNSKTWYANWAKGRFTISKTSTTVYLQMNSLRAEDTATYYCARGDAGYTTNSWLWGQGTLVTVSS
VL: AFELTQSPSSLSASVGDRVTITCQASESIDNYLSWYQQKPGKAPKLLIYQAFKLASGVPSRFRGSGSGTDFTLTISSLQSEDFATYYCQSYSGISTTAFGGGTEVVIK
notes: Humanized variant
B2: IgG1-ROR2-A-HC3LC1-FEAR (antibody, V domains shown)
VH: B1 VH
VL: B1 VL with L33C
notes: Humanized variant
B3: IgG1-ROR2-A-HC3LC3-FEAR (antibody)
heavy: EVQLLESGGGLVQPGGSLRLSCTVSGFSLSSYSMSWVRQAPGKGLEWIGVIYVNSKTWYANWAKGRFTISKTSTTVYLQMNSLRAEDTATYYCARGDAGYTTNSWLWGQGTLVTVSSASTKGPSVFPLAPSSKSTSGGTAALGCLVKDYFPEPVTVSWNSGALTSGVHTFPAVLQSSGLYSLSSVVTVPSSSLGTQTYICNVNHKPSNTKVDKRVEPKSCDKTHTCPPCPAPEFEGGPSVFLFPPKPKDTLMISRTPEVTCVVVAVSHEDPEVKFNWYVDGVEVHNAKTKPREEQYNSTYRVVSVLTVLHQDWLNGKEYKCKVSNKALPAPIEKTISKAKGQPREPQVYTLPPSREEMTKNQVSLTCLVKGFYPSDIAVEWESNGQPENNYKTTPPVLDSDGSFFLYSRLTVDKSRWQQGNVFSCSVMHEALHNHYTQKSLSLSPGK
VL: B1 VL with S80P, E104K, V106E
notes: Humanized variant
B4: IgG1-ROR2-A-HC3LC4-FEAR (antibody)
heavy: B3 heavy
VL: B1 VL with A1D, F2I, E3Q, S80P, E104K, V106E
notes: Humanized variant
B5: IgG1-ROR2-A-HC7LC2-FEAR (antibody, V domains shown)
VH: EVQLLESGGGLVQPGGSLRLSCAASGFSLSSYSMSWVRQAPGKGLEWIGVIYVNSKTWYADSVKGRFTISKDNSKNTVYLQMNSLRAEDTATYYCARGDAGYTTNSWLWGQGTLVTVSS
VL: B1 VL
notes: Humanized variant
B6: IgG1-ROR2-A-HC4LC1-FEAR (antibody, V domains shown)
VH: B5 VH with A23T, A24V, D61N, S62W, V63A
VL: B1 VL with L33C
notes: Humanized variant
B7: IgG1-ROR2-A-HC4LC2-FEAR (antibody, V domains shown)
VH: B5 VH with A23T, A24V, D61N, S62W, V63A
VL: B1 VL
notes: Humanized variant
B8: IgG1-ROR2-A-HC4LC4-FEAR (antibody)
heavy: EVQLLESGGGLVQPGGSLRLSCTVSGFSLSSYSMSWVRQAPGKGLEWIGVIYVNSKTWYANWAKGRFTISKDNSKNTVYLQMNSLRAEDTATYYCARGDAGYTTNSWLWGQGTLVTVSSASTKGPSVFPLAPSSKSTSGGTAALGCLVKDYFPEPVTVSWNSGALTSGVHTFPAVLQSSGLYSLSSVVTVPSSSLGTQTYICNVNHKPSNTKVDKRVEPKSCDKTHTCPPCPAPEFEGGPSVFLFPPKPKDTLMISRTPEVTCVVVAVSHEDPEVKFNWYVDGVEVHNAKTKPREEQYNSTYRVVSVLTVLHQDWLNGKEYKCKVSNKALPAPIEKTISKAKGQPREPQVYTLPPSREEMTKNQVSLTCLVKGFYPSDIAVEWESNGQPENNYKTTPPVLDSDGSFFLYSRLTVDKSRWQQGNVFSCSVMHEALHNHYTQKSLSLSPGK
VL: B1 VL with A1D, F2I, E3Q, S80P, E104K, V106E
notes: Humanized variant
B9: IgG1-ROR2-A-HC5LC1-FEAR (antibody, V domains shown)
VH: B5 VH with D61N, S62W, V63A
VL: B1 VL with L33C
notes: Humanized variant
B10: IgG1-ROR2-A-HC5LC2-FEAR (antibody, V domains shown)
VH: B5 VH with D61N, S62W, V63A
VL: B1 VL
notes: Humanized variant
B11: IgG1-ROR2-A-HC5LC3-FEAR (antibody)
heavy: B8 heavy with T23A, V24A
VL: B1 VL with S80P, E104K, V106E
notes: Humanized variant
B12: IgG1-ROR2-A-HC5LC4-FEAR (antibody)
heavy: B8 heavy with T23A, V24A
VL: B1 VL with A1D, F2I, E3Q, S80P, E104K, V106E
notes: Humanized variant
B13: IgG1-ROR2-A-HC6LC1-FEAR (antibody, V domains shown)
VH: B5 VH with A23T, A24V
VL: B1 VL with L33C
notes: Humanized variant
B14: IgG1-ROR2-A-HC6LC2-FEAR (antibody, V domains shown)
VH: B5 VH with A23T, A24V
VL: B1 VL
notes: Humanized variant
B15: IgG1-ROR2-A-HC6LC3-FEAR (antibody)
heavy: B8 heavy with N61D, W62S, A63V
VL: B1 VL with S80P, E104K, V106E
notes: Humanized variant
B16: IgG1-ROR2-A-HC6LC4-FEAR (antibody)
heavy: B8 heavy with N61D, W62S, A63V
VL: B1 VL with A1D, F2I, E3Q, S80P, E104K, V106E
notes: Humanized variant
B17: IgG1-ROR2-A-HC7LC1-FEAR (antibody, V domains shown)
VH: B5 VH
VL: B1 VL with L33C
notes: Humanized variant
B18: IgG1-ROR2-A-HC7LC3-FEAR (antibody)
heavy: B8 heavy with T23A, V24A, N61D, W62S, A63V
VL: B1 VL with S80P, E104K, V106E
notes: Humanized variant
B19: IgG1-ROR2-A-HC7LC4-FEAR (antibody)
heavy: B8 heavy with T23A, V24A, N61D, W62S, A63V
VL: B1 VL with A1D, F2I, E3Q, S80P, E104K, V106E
notes: Humanized variant
B20: IgG1-ROR2-A-HC1LC2-FEAR (antibody, V domains shown)
VH: QSVLESGGGLVQPGGSLRLSCTVSGFSLSSYSMSWVRQAPGKGLEWIGVIYVNSKTWYANWAKGRFTISKTSTTVDLKITSPTAEDTATYFCARGDAGYTTNSWLWGQGTLVTVSS
VL: B1 VL
notes: Humanized variant
B21: IgG1-ROR2-A-HC1LC1-FEAR (antibody, V domains shown)
VH: B20 VH
VL: B1 VL with L33C
notes: Humanized variant

target: T1, his-tagged ROR2 extracellular domain (ROR2-ECD, G&P Biosciences, cat. no. FCL0192) (human, UniProt Q01974 34-403); assay: BLI (Octet), antibody on anti-human IgG Fc sensor, ROR2-ECD 1.56-100 nM as analyte
T1 construct: Bought protein; also called human ROR2-ECD; recombinant human ROR2-ECD; not shown: his tag
T1 sequence (Q01974 34-403): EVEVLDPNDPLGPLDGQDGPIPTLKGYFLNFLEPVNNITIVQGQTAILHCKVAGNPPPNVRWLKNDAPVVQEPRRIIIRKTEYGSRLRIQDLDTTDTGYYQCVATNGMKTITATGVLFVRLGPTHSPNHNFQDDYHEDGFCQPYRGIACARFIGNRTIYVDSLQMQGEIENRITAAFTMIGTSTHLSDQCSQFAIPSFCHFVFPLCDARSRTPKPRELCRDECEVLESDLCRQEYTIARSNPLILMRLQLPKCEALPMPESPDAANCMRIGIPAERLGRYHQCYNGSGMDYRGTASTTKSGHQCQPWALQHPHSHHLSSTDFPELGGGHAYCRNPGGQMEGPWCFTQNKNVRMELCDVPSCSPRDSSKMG

B1 and B2 are within 1.5-fold of each other in Kd: 1.8 nM for the first, 1.6 nM for the second.

B3 and B4 are within 1.5-fold of each other in Kd: 1.8 nM for the first, 1.5 nM for the second.

Going from B5 to B6, the Kd falls from 4.7 nM to 2.1 nM (2.2-fold). The second binds more tightly here.

B7 and B8 are within 1.5-fold of each other in Kd: 1.6 nM for the first, 1.5 nM for the second.

B9 and B10 are within 1.5-fold of each other in Kd: 1.6 nM for the first, 1.8 nM for the second.

B11 and B12 are within 1.5-fold of each other in Kd: 1.7 nM for the first, 1.9 nM for the second.

B13 and B14 are within 1.5-fold of each other in Kd: 3.1 nM for the first, 3.9 nM for the second.

B15 and B16 are within 1.5-fold of each other in Kd: 4 nM for the first, 4.4 nM for the second.

B17 and B18 are within 1.5-fold of each other in Kd: 3.8 nM for the first, 5.1 nM for the second.

Going from B19 to B20, the Kd falls from 5.6 nM to 1.9 nM (2.9-fold). The second binds more tightly here.

B21 gave a Kd of 1.6 nM.

B1 and B2 are within 1.5-fold of each other in koff: 0.001 s⁻¹ for the first, 0.00088 s⁻¹ for the second.

B3 and B4 are within 1.5-fold of each other in koff: 0.001 s⁻¹ for the first, 0.00087 s⁻¹ for the second.

Going from B5 to B6, the koff falls from 0.0025 s⁻¹ to 0.0011 s⁻¹ (2.3-fold).

B7 and B8 are within 1.5-fold of each other in koff: 0.00095 s⁻¹ for the first, 0.00092 s⁻¹ for the second.

B9 and B10 are within 1.5-fold of each other in koff: 0.00088 s⁻¹ for the first, 0.00097 s⁻¹ for the second.

B11 and B12 are within 1.5-fold of each other in koff: 0.00084 s⁻¹ for the first, 0.0011 s⁻¹ for the second.

B13 and B14 are within 1.5-fold of each other in koff: 0.0017 s⁻¹ for the first, 0.0022 s⁻¹ for the second.

B15 and B16 are within 1.5-fold of each other in koff: 0.0023 s⁻¹ for the first, 0.0025 s⁻¹ for the second.

B17 and B18 are within 1.5-fold of each other in koff: 0.0021 s⁻¹ for the first, 0.0028 s⁻¹ for the second.

Compared with B19, B20 is 2.9-fold lower in koff: 0.0032 s⁻¹ for the first, 0.0011 s⁻¹ for the second.

Binder B21 has a koff of 0.00096 s⁻¹.

B1 and B2 are within 1.5-fold of each other in kon: 560000 M⁻¹ s⁻¹ for the first, 550000 M⁻¹ s⁻¹ for the second.

B3 and B4 are within 1.5-fold of each other in kon: 550000 M⁻¹ s⁻¹ for the first, 580000 M⁻¹ s⁻¹ for the second.

B5 and B6 are the same in kon: 540000 M⁻¹ s⁻¹ for the first, 540000 M⁻¹ s⁻¹ for the second.

B7 and B8 are within 1.5-fold of each other in kon: 590000 M⁻¹ s⁻¹ for the first, 620000 M⁻¹ s⁻¹ for the second.

B9 and B10 are within 1.5-fold of each other in kon: 540000 M⁻¹ s⁻¹ for the first, 550000 M⁻¹ s⁻¹ for the second.

B11 and B12 are within 1.5-fold of each other in kon: 510000 M⁻¹ s⁻¹ for the first, 550000 M⁻¹ s⁻¹ for the second.

B13 and B14 are the same in kon: 560000 M⁻¹ s⁻¹ for the first, 560000 M⁻¹ s⁻¹ for the second.

B15 and B16 are within 1.5-fold of each other in kon: 560000 M⁻¹ s⁻¹ for the first, 570000 M⁻¹ s⁻¹ for the second.

B17 and B18 are within 1.5-fold of each other in kon: 540000 M⁻¹ s⁻¹ for the first, 550000 M⁻¹ s⁻¹ for the second.

B19 and B20 are within 1.5-fold of each other in kon: 570000 M⁻¹ s⁻¹ for the first, 590000 M⁻¹ s⁻¹ for the second.

Work on B21 yielded a kon of 590000 M⁻¹ s⁻¹.
